Reference: patent publication US20180214548A1

Molecular target: NC-Fc
Test: ELISA, coated protein 1 ug/mL; antibody concentration not stated

Row | OD450 nm | Binder
1 | 0.161 | chimeric anti-PD-1 antibody 21G8F11 (antibody, V domains shown) VH: EVQLLESGGGLAQPGGSLRLSCAASGFSFNTYLMHWVRQAPGKGLEWVSAISGGGGNTYYADSVKGRFTISRDNSKNTLYLQMNSLRAEDTAVYYCAKENRIPVAPFDYWGQGTLVTVSS VL: DIQMTQSPSTLSASVGDRVTITCRASQSISTWLAWYQQKPGKAPKLLIYKASSLESGVPSRFSGSGSGTEFTLTISSLQPDDLATYYCQQYNSFSWTFGQGTKVEIK
2 | 0.268 | chimeric anti-PD-1 antibody 76G5B3 (antibody, V domains shown) VH: QVQLVESGGGVVQPGRSLRLSCAASGFTFSDYGFHWVRQAPGKGLEWVAVIWYDGSNEYYTDSVKGRFTISRDNSKNTLYLQMNSLRAEDTAMYFCVVNPFDYWGQGTLVTVSS VL: DIQMTQSPSSLSAFVGDRVTITCRASQGINHYLAWYQQKPGKAPNLLILAASTLLSGVPSRFGGRGSGTDFTLIISSLQPEDVATYYCQKYDSAPYTFGQGTKLEIK
